Positions count from the first letter of the chain named.
What was measured:
Assay in all cases: SPR
[1] = molecular target: T1, cynomolgus CD137 (cynomolgus monkey)
T1 chain: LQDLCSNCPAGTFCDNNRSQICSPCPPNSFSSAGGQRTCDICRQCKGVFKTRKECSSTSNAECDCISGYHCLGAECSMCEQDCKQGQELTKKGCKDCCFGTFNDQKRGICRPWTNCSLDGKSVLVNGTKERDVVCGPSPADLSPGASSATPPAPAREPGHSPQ

[2] = molecular target: human CD137 (human, UniProt Q07011)
[3] = molecular target: T2, cynomolgus HER2 (cynomolgus monkey)
T2 chain: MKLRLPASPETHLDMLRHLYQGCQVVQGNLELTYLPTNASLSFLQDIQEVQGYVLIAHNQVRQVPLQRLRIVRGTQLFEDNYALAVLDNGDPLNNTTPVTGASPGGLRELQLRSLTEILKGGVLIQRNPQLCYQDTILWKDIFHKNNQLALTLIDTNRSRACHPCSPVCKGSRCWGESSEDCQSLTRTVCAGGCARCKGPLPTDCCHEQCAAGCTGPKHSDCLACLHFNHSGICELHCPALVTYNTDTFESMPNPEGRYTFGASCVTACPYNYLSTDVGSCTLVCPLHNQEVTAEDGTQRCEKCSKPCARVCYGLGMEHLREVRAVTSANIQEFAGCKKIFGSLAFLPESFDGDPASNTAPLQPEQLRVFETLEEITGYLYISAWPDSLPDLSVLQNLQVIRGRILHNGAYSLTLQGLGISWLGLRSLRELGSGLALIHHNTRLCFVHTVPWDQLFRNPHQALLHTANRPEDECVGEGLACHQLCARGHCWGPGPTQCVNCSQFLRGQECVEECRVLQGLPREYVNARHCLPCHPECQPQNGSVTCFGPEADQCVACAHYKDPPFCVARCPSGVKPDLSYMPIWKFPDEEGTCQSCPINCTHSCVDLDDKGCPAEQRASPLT

[4] = molecular target: human HER2 (human, UniProt P04626)

Chain of human CD137 (Q07011 24-186): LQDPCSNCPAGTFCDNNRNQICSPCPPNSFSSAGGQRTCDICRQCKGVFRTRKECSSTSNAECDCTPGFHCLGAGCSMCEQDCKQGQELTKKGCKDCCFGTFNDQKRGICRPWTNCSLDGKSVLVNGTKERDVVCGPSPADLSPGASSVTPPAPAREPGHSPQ

B1: DART-G4 (CD137 arm) (antibody, V domains shown)
VH: QVQLVQSGAEVKKPGASVKVSCKASGYTFTSYWINWVKQAPGQGLEWIGNIYPSDSYTNYNQKFKDKATITADKSTSTAYMELSSLRSEDTAVYYCTRDYGSSYSYNVWGQGTTVTVSS
VL: DIQMTQSPSSLSASVGDRVTITCRPSQDISNYLNWYQQKPDKTVKLLIYYTSRLRSGVPSRFSGSGSGTDFTFTISSLQPEDIATYFCQQGDTLPYTFGQGTKLEIK
- Kd [1]: 40 nM
- Kd [2]: 28 nM

B2: DART-B (HER2 arm) (antibody, V domains shown)
VH: QVQLVQSGAEVKKPGASVKVSCKASGYTFTNYGMNWVRQAPGQGLEWMGWINTNIGEPTYTEEFKGRVTMTRDTSISTAYMELSRLRSDDTAVYYCARDDGYGNRVSYWGQGTLVTVSS
VL: DIQMTQSPSSLSASVGDRVTITCKASQDISNYLSWFQQKPGKAPKTLIYRANRLQSGVPSRFSGSGSGTDFTLTISSLQPEDFATYYCLQHDEFPWTFGQGTKLEIK
- Kd [3]: 0.66 nM
- Kd [4]: 0.38 nM

B3: DART-G (CD137 arm) (antibody, V domains shown)
VH: B1 VH with Y106F, N107D, V108Y
VL: B1 VL
- Kd [1]: 115 nM
- Kd [2]: 114 nM

B4: DART-G2 (CD137 arm) (antibody, V domains shown)
VH: B1 VH with S103A, Y106M, N107S, V108T
VL: B1 VL
- Kd [1]: 64 nM
- Kd [2]: 60 nM

B5: DART-D (CD137 arm) (antibody, V domains shown)
VH: QVQLQQPGAELVRPGASVKLSCKASGYTFTSYWINWVKQRPGQGLEWIGNIYPSDSYTNYNQKFKDKATLTVDKSSSTAYMQLSSPTSEDSAVYYCTRDYGSSYSFDYWGQGTTLTVSS
VL: DIQMTQTTSSLSASLGDRVTISCRPSQDISNYLNWYQQKPDGTVKLLIYYTSRLRSGVPSRFSGSGSGTDYSLTISNLEQEDIATYFCQQGDTLPYTFGGGTKLEIK
- Kd [1]: 67 nM
- Kd [2]: 53 nM

B6: DART-G3 (CD137 arm) (antibody, V domains shown)
VH: B1 VH with S103A, N107S, V108L
VL: B1 VL
- Kd [1]: 78 nM
- Kd [2]: 64 nM

Source: patent US20240233818 (published 2024)
